Reference: paper doi:10.1101/2021.01.21.427698 (bioRxiv, 2021)
Where a chain is given by its changes, count along the chain named.

Tests used:
[1] = target: the molecule itself; test: spinning disk fluorescence microscopy of septin polymerisation
[2] = target: the molecule itself; test: negative-stain electron microscopy of septin polymerisation

B1: recombinant Drosophila septin hexamers (DSep1-msfGFP, DSep2, Peanut) (complex)
chain 1: MADTKGFSSIETPGYVGFANLPNQVHRKSVKKGFEFTLMVVGESGLGKSTLVNSLFLTDLYPERIIPDAIEKQKQTVKLEASTVEIEERGVKLRLTVVDTPGFGDAIDNSNSFGAILEYIDEQYERFLRDESGLNRRNIVDNRIHCCFYFISPFGHGLKPLDVEFMKKLHSKVNIVPVIAKADCLTKKEILRLKCRIMQEIESHGIKIYPLPDCDSDEDEDYKEQVKQLKEAVPFAVCGANTLLEVKGKKVRGRLYPWGVVEVENPDHCDFIKLRTMLITHMQDLQEVTQEVHYENYRSDRLAKGIKGKENGVKAERDSSSQVVSNSVLGEKDRILQEKEAELRRMQEMLAQMQARMQAQQ
chain 2: MSVEVDFVDKKEVHLRTLKQSGHVGFDSLPDQLVNKSVQNGFVFNVMCIGETGLGKSTLMDTLFNTSFESTPSPHTLPSVKLKAHTYELQESNVRLKLTICDTVGYGDQINKDDSFKAVVDYIDAQFENYLQEELKIKRSLVTCHDSRIHICLYFICPTGHGLKSLDLVCMKKLDSKVNIIPVIAKADTISKVELQRFKAKIIQELNANGVHIYQFPTDDETVAETNTSMNSHIPFAVVGSTEFIKVGNKLIRARQYPWGTVQVENETHCDFVKLREMLIRTNMEDMREKTHTRHYELYRQKRLEQMGFSDVDSDNKPISFQQTFEAKRSNHLAELQSKEEEVRQMFVQRVKEKEAELKESEKDLHAKFEKLKRDHAEEKRKLEESRKALEEDYLDFQRRKQQLATAHHTLTLGKSKKK
chain 3: MNSPRSNAVNGGSGGAISALPSTLAQLALRDKQQAASASASSATNGSSGSESLVGVGGRPPNQPPSVPVAASGKLDTSGGGASNGDSNKLTHDLQEKEHQQAQKPQKPPLPVRQKPMEIAGYVGFANLPNQVYRKAVKRGFEFTLMVVGASGLGKSTLINSMFLSDIYNAEQYPGPSLRKKKTVAVEATKVMLKENGVNLTLTVVDTPGFGDAVDNSNCWVPILEYVDSKYEEYLTAESRVYRKTISDSRVHCCLYFIAPSGHGLLPLDIACMQSLSDKVNLVPVIAKADTMTPDEVHLFKKQILNEIAQHKIKIYDFPATLEDAAEEAKTTQNLRSRVPFAVVGANTIIEQDGKKVRGRRYPWGLVEVENLTHCDFIALRNMVIRTHLQDLKDVTNNVHYENYRCRKLSELGLVDGKARLSNKNPLTQMEEEKREHEQKMKKMEAEMEQVFDMKVKEKMQKLRDSELELARRHEERKKALELQIRELEEKRREFEREKKEWEDVNHVTLEELKRRSLGANSSTDNVDGKKEKKKKGLF
[1]
  binding result: binds

B2: SEPT2-msfGFP human septin octamers containing SEPT9_i3 (complex)
chain 1: MSKQQPTQFINPETPGYVGFANLPNQVHRKSVKKGFEFTLMVVGESGLGKSTLINSLFLTDLYPERVIPGAAEKIERTVQIEASTVEIEERGVKLRLTVVDTPGYGDAINCRDCFKTIISYIDEQFERYLHDESGLNRRHIIDNRVHCCFYFISPFGHGLKPLDVAFMKAIHNKVNIVPVIAKADTLTLKERERLKKRILDEIEEHNIKIYHLPDAESDEDEDFKEQTRLLKASIPFSVVGSNQLIEAKGKKVRGRLYPWGVVEVENPEHNDFLKLRTMLITHMQDLQEVTQDLHYENFRSERLKRGGRKVENEDMNKDQILLEKEAELRRMQEMIARMQAQMQMQMQGGDGDGGALGHHV
chain 2: MAATDIARQVGEGCRTVPLAGHVGFDSLPDQLVNKSVSQGFCFNILCVGETGLGKSTLMDTLFNTKFEGEPATHTQPGVQLQSNTYDLQESNVRLKLTIVSTVGFGDQINKEDSYKPIVEFIDAQFEAYLQEELKIRRVLHTYHDSRIHVCLYFIAPTGHSLKSLDLVTMKKLDSKVNIIPIIAKADAISKSELTKFKIKITSELVSNGVQIYQFPTDDESVAEINGTMNAHLPFAVIGSTEELKIGNKMMRARQYPWGTVQVENEAHCDFVKLREMLIRVNMEDLREQTHTRHYELYRRCKLEEMGFKDTDPDSKPFSLQETYEAKRNEFLGELQKKEEEMRQMFVQRVKEKEAELKEAEKELHEKFDRLKKLHQDEKKKLEDKKKSLDDEVNAFKQRKTAAELLQSQGSQAGGSQTLKRDKEKKN
chain 3: MSVSARSAAAEERSVNSSTMVAQQKNLEGYVGFANLPNQVYRKSVKRGFEFTLMVVGESGLGKSTLINSLFLTDLYSPEYPGPSHRIKKTVQVEQSKVLIKEGGVQLLLTIVDTPGFGDAVDNSNCWQPVIDYIDSKFEDYLNAESRVNRRQMPDNRVQCCLYFIAPSGHGLKPLDIEFMKRLHEKVNIIPLIAKADTLTPEECQQFKKQIMKEIQEHKIKIYEFPETDDEEENKLVKKIKDRLPLAVVGSNTIIEVNGKRVRGRQYPWGVAEVENGEHCDFTILRNMLIRTHMQDLKDVTNNVHYENYRSRKLAAVTYNGVDNNKNKGQLTKSPLAQMEEERREHVAKMKKMEMEMEQVFEMKVKEKVQKLKDSEAELQRRHEQMKKNLEAQHKELEEKRRQFEDEKANWEAQQRILEQQNSSRTLEKNKKKGKIF
chain 4: MERDRISALKRSFEVEEVETPNSTPPRRVQTPLLRATVASSTQKFQDLGVKNSEPSARHVDSLSQRSPKASLRRVELSGPKAAEPVSRRTELSIDISSKQVENAGAIGPSRFGLKRAEVLGHKTPEPAPRRTEITIVKPQESAHRRMEPPASKVPEVPTAPATDAAPKRVEIQMPKPAEAPTAPSPAQTLENSEPAPVSQLQSRLEPKPQPPVAEATPRSQEATEAAPSCVGDMADTPRDAGLKQAPASRNEKAPVDFGYVGIDSILEQMRRKAMKQGFEFNIMVVGQSGLGKSTLINTLFKSKISRKSVQPTSEERIPKTIEIKSITHDIEEKGVRMKLTVIDTPGFGDHINNENCWQPIMKFINDQYEKYLQEEVNINRKKRIPDTRVHCCLYFIPATGHSLRPLDIEFMKRLSKVVNIVPVIAKADTLTLEERVHFKQRITADLLSNGIDVYPQKEFDEDSEDRLVNEKFREMIPFAVVGSDHEYQVNGKRILGRKTKWGTIEVENTTHCEFAYLRDLLIRTHMQNIKDITSSIHFEAYRVKRLNEGSSAMANGVEEKEPEAPEM
[1]
  binding result: binds

B3: recombinant mammalian SEPT9_i3-containing octamers (mouse SEPT2, human SEPT6, human SEPT7ΔN19, human SEPT9_i3) (complex)
chain 1: B2 chain 1 with V67I, N207S, G352S, G354S, H359Q
chain 2: B2 chain 2
chain 3: MVAQQKNLEGYVGFANLPNQVYRKSVKRGFEFTLMVVGESGLGKSTLINSLFLTDLYSPEYPGPSHRIKKTVQVEQSKVLIKEGGVQLLLTIVDTPGFGDAVDNSNCWQPVIDYIDSKFEDYLNAESRVNRRQMPDNRVQCCLYFIAPSGHGLKPLDIEFMKRLHEKVNIIPLIAKADTLTPEECQQFKKQIMKEIQEHKIKIYEFPETDDEEENKLVKKIKDRLPLAVVGSNTIIEVNGKRVRGRQYPWGVAEVENGEHCDFTILRNMLIRTHMQDLKDVTNNVHYENYRSRKLAAVTYNGVDNNKNKGQLTKSPLAQMEEERREHVAKMKKMEMEMEQVFEMKVKEKVQKLKDSEAELQRRHEQMKKNLEAQHKELEEKRRQFEDEKANWEAQQRILEQQNSSRTLEKNKKKGKIF
chain 4: B2 chain 4
[2]
  binding result: binds

B4: recombinant human septin octamers containing SEPT9_i3 (nonfluorescent) (complex)
chain 1: B2 chain 1
chain 2: B2 chain 2
chain 3: B2 chain 3
chain 4: B2 chain 4
[2]
  binding result: binds

B5: recombinant mammalian SEPT2-, SEPT6-, SEPT7-containing hexamers (mouse SEPT2, human SEPT6, human SEPT7ΔN19) (complex)
chain 1: B2 chain 1 with V67I, N207S, G352S, G354S, H359Q
chain 2: B2 chain 2
chain 3: B3 chain 3
[2]
  binding result: binds

B6: recombinant human septin octamers containing SEPT9_i1 (nonfluorescent) (complex)
chain 1: B2 chain 1
chain 2: B2 chain 2
chain 3: B2 chain 3
chain 4: MKKSYSGGTRTSSGRLRRLGDSSGPALKRSFEVEEVETPNSTPPRRVQTPLLRATVASSTQKFQDLGVKNSEPSARHVDSLSQRSPKASLRRVELSGPKAAEPVSRRTELSIDISSKQVENAGAIGPSRFGLKRAEVLGHKTPEPAPRRTEITIVKPQESAHRRMEPPASKVPEVPTAPATDAAPKRVEIQMPKPAEAPTAPSPAQTLENSEPAPVSQLQSRLEPKPQPPVAEATPRSQEATEAAPSCVGDMADTPRDAGLKQAPASRNEKAPVDFGYVGIDSILEQMRRKAMKQGFEFNIMVVGQSGLGKSTLINTLFKSKISRKSVQPTSEERIPKTIEIKSITHDIEEKGVRMKLTVIDTPGFGDHINNENCWQPIMKFINDQYEKYLQEEVNINRKKRIPDTRVHCCLYFIPATGHSLRPLDIEFMKRLSKVVNIVPVIAKADTLTLEERVHFKQRITADLLSNGIDVYPQKEFDEDSEDRLVNEKFREMIPFAVVGSDHEYQVNGKRILGRKTKWGTIEVENTTHCEFAYLRDLLIRTHMQNIKDITSSIHFEAYRVKRLNEGSSAMANGVEEKEPEAPEM
[2]
  binding result: binds
